Source: publication PMC9397949

Target: ACE-2 receptor on the surface of Vero E6 cells (African green monkey (endogenous in Vero E6))
Experiment: flow cytometry on cells; about 10^6 Vero-E6 cells blocked with FACS buffer and 5% normal mouse serum, incubated with RBD (8 ug/mL in the methods; different concentrations in the results) 2 h at 37 C; detected with rabbit monoclonal anti-S1 and Alexa Fluor 488 anti-rabbit IgG; percent of positive cells

Substance | percent of cells bound
commercially available recombinant RBD expressed in insect cells (Cat No. Z03479, GenScript) (from UniProt P0DTC2) (domain or fragment) | 78%
Recombinant SARS-CoV-2 Spike RBD (Pro330-Ser530), purified (from UniProt P0DTC2 330-530) (domain or fragment) | 60%
